Assay: soluble on expression in E. coli; label from the status in PepcDB or PDB records

Row | Sequence | soluble on expression in E. coli
1 | MDITEKLRLITRNAEEVVTEEELRQLIETKEKPRAYVGYEPSGEIHLGHMMTVQKLMDLQEAGFEIIVLLADIHAYLNEKGTFEEIAEVADYNKKVFIALGLDESRAKFVLGSEYQLSRDYVLDVLKMARITTLNRARRSMDEVSRRKEDPMVSQMIYPLMQALDIAHLGVDLAVGGIDQRKIHMLARENLPRLGYSSPVCLHTPILVGLDGQKMSSSKGNYISVRDPPEEVERKIRKAYCPAGVVEENPILDIAKYHILPRFGKIVVERDAKFGGDVEYASFEELAEDFKSGQLHPLDLKIAVAKYLNMLLEDARKRLGVSV | soluble
2 | MDIWVNLLSDRLESPNFEFITDFIGGKCVVQKDYLEDEKSQSSSGWLLHVYFRPEEFLDRPFVADIIFRCGTRRREVFSVLLKNDCFFAHMRVKEKTGRLIIAARIRKMLCELDLSKPSGSRQFVVQNFENQLKDGRIFYVNLAKLGQIGGDLFKKWQTVENVQQLSLANETMENRMIEVLMEATAKYDDIVVIRHSFHRLIQLAQTYRMHKLMRVIEENLSETKLMNWDEKILLALQYRMSQLYVQVQRKYLLTPWNILCRIQRLYLSNYAAKSGNASNPYDMIHKNLMQMVMMSDENICIG | not soluble
3 | MDKDCEMKRTTLDSPLGKLELSGCEQGLHEIKLLGKGTSAADAVEVPAPAAVLGGPEPLMQCTAWLNAYFHQPEAIEEFPVPALHHPVFQQESFTRQVLWKLLKVVKFGEVISYQQLAALAGNPKAARAVGGAMRGNPVPILIPCHRVVCSSGAVGNYSGGLAVKEWLLAHEGHRLGKPGLGGSSGLAGAWLKGAGATSGSPPAGRN | soluble
4 | MDKIVIKGGNKLTGEVKVEGAKNAVLPILTASLLASDKPSKLVNVPALSDVETINNVLTTLNADVTYKKDENAVVVDATKTLNEEAPYEYVSKMRASILVMGPLLARLGHAIVALPGGCAIGSRPIEQHIKGFEALGAEIHLENGNIYANAKDGLKGTSIHLDFPSVGATQNIIMAASLAKGKTLIENAAKEPEIVDLANYINEMGGRITGAGTDTITINGVESLHGVEHAIIPDRIEAGTLLIAGAITRGDIFVRGAIKEHMASLVYKLEEMGVELDYQEDGIRVRAEGELQPVDIKTLPHPGFPTDMQSQMMALLLTANGHKVVTETVFENRFMHVAEFKRMNANINVEGRSAKLEGKSQLQGAQVKATDLRAAAALILAGLVADGKTSVTELTHLDRGYVDLHGKLKQLGADIERIND | not soluble
5 | MDKLGENLNKALNKLKAAAFVDKKLIKEVIKDIQRALIQADVNVKLVLKMSKEIERRALEEKTPKGLSKKEHIIKIVYEELVKLLGEEAKKLELNPKKQNVILLVGIQGSGKTTTAAKLARYIQKRGLKPALIAADTYRPAAYEQLKQLAEKIHVPIYGDETRTKSPVDIVKEGMEKFKKADVLIIDTAGRHKEEKGLLEEMKQIKEITNPDEIILVIDGTIGQQAGIQAKAFKEAVGEIGSIIVTKLDGSAKGGGALSAVAETKAPIKFIGIGEGIDDLEPFDPKKFISRLLGMGDLESLLEKAEDMVDEKTEESIDAIMRGKFTLNELMTQLEAIENMGSMKKILSMIPGFGGAMPKELSHLTEAKIKKYKVIISSMTKEERENPKIIKASRIRRIARGSGTTENDVREVLRYYETTKNAIDKLHHHHHH | soluble
6 | MDLALFDLDETLISDDSTGLWIRWLVNEGLAPFELSEQEQTLMTQYYQGQLSMAGYMAATLSPLVGKHTAEVAGWVEHFIAHDILPRIYPQALEKLAWHRDRGDYIVIISASGEHLVTPIAKHFAADTALSIGVTVENDRYTGQTYGTLTYQKGKVDRLNQWLSASPQLNFKRSYGYSDSINDQPLLEYVDHAAVINPGAELIDLAVLHQWDIHHW | not soluble
7 | MDLFCLGRDLQTRPQSKEALSAIILAPMEWDLSDLYSGPQDPRILQDLEAALALAQGLDPQGLLDPKGAQDLLERYEKALELAYKPLNYASLYFATRTQDPEAKALLDRVRSRFTEVRNRLVPLEVALRKLPEEAFQRLLAHPGLADLGHFLKRQRAYAPHTLSEREEELLNLKALVGRSAWSQFYTEYTGRFRFRVGERELTEMEVRALRRDPDPEVRREAHRALYGKLLAEAPTLSAVFNAVYLDYLQDLRLRGYRHPLEPVALRDEVEVREIEALLEATKAHYPLVERYYRWKAGRLGREKTPSEDLLAPLGEKPKVPFAEARALVLEAFRRFSPELAEIAREFFEKRWIDVYPRPGKRGGAFCSGGLPSTHPYILLNHTDDLDSAHTLAHELGHGVHFYLARKQRLLNFGASTPLAETASVFAEILLDDLLLERLSGEEKTLLLAERVEDAINTLFRQVMYTFFEQRSLEARKEAALSPEAFHALWDEEQRRLYGEAVAWTELDRAAWAGIPHFVHYRFYTYSYALGYLVVLALYGKYREEGEAFVPKYLRILEAGESASPKEILAEAGVELGSEAFFRYGFGVLESWLKALP | soluble
